Experimental data as given in patent USRE47150 (Bayer, dated 2018).
Changes are numbered by the printed parent chain. Numbers in names are those of the source.

T1: human tissue factor pathway inhibitor (TFPI) (human, UniProt P10646 29-304, limits assumed)
T1 construct: bought; also called hTFPI; human TFPI
T1 sequence (looked up): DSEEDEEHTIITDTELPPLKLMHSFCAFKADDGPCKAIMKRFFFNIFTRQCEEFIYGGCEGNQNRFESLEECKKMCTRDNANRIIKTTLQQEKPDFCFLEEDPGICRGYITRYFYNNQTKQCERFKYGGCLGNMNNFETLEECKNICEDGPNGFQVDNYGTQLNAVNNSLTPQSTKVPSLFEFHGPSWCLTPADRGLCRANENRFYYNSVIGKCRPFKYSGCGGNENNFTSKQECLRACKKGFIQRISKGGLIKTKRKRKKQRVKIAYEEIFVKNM

T2: mouse tissue factor pathway inhibitor (TFPI) (mouse, UniProt O54819 29-289, limits assumed)
T2 construct: bought; also called mTFPI; murine TFPI
T2 sequence (looked up): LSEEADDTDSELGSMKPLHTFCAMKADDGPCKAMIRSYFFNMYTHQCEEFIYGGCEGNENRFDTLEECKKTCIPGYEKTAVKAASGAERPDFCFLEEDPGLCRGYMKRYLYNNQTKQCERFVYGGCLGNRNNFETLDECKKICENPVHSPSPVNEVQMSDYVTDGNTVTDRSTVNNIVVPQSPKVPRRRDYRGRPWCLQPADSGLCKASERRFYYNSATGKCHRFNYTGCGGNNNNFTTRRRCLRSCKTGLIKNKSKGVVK

B1: 4B7 HC_D62R (Fab, V domains shown)
VH: QVQLQQSGPGLVKPSQTLSLTCAISGDSVSSNSAAWSWIRQSPGRGLEWLGIIYKRSKWYNRYAVSVKSRITINPDTSKNQFSLQLNSVTPEDTAVYYCARWHSDKHWGFDYWGQGTLVTVSS
VL: DIVMTQSPLSLPVTPGEPASISCRSSQSLVFSDGNTYLNWYLQKPGQSPQLLIYKGSNRASGVPDRFSGSGSGTDFTLKISRVEAEDVGVYYCQQYDSYPLTFGQGTKVEIKR
notes: also called 4B7-D62R
B2: 2A8 wild-type Fab (Fab, V domains shown)
VH: QVQLVESGGGLVQPGGSLRLSCAASGFTFRSYGMSWVRQAPGKGLEWVSSIRGSSSSTYYADSVKGRFTISRDNSKNTLYLQMNSLRAEDTAVYYCARKYRYWFDYWGQGTLVTVSS
VL: DIELTQPPSVSVAPGQTARISCSGDNLRNYYAHWYQQKPGQAPVVVIYYDNNRPSGIPERFSGSNSGNTATLTISGTQAEDEADYYCQSWDDGVPVFGGGTKLTVLG
notes: Fab with c-myc (or HA, or none) and 6xHis tag at the C-terminus of the heavy chain; also called 2A8wt; 2A8 wt
B3: 2A8 HC_K99L (Fab, V domains shown)
VH: B2 VH with K99L
VL: B2 VL
notes: also called 2A8-9
B4: 2A8-g216 (HC S31V+I51D+S55R+K99V/LC D1S+I2Y+A13S+S21T+R28P+N29K+Y48F+N51S+E80M+D91L+D92S+V94T+V96W) (Fab, V domains shown)
VH: B2 VH with S31V, I51D, S55R, K99V
VL: SYELTQPPSVSVSPGQTARITCSGDNLPKYYAHWYQQKPGQAPVVVIFYDSNRPSGIPERFSGSNSGNTATLTISGTQAMDEADYYCQSWLSGTPWFGGGTKLTVLG
B5: 2A8-g200 (HC Q1E+R30S+S35D+S55R+S56G+K99L/LC D1S+I2Y+A13S+S21T+R28P+N29K+Y48F+N51V+E80M+S89A+D91W+D92S+G93S+V94T) (Fab, V domains shown)
VH: B2 VH with Q1E, R30S, S35D, S55R, S56G, K99L
VL: B4 VL with S51V, S89A, L91W, G93S, W96V
B6: 2A8-200 (HC S35D+S55R+K99L/LC Y48F+N51V+D91W) (Fab, V domains shown)
VH: B2 VH with S35D, S55R, K99L
VL: B2 VL with Y48F, N51V, D91W
B7: 2A8-143 (HC S35D+S55R+K99L/LC Y48F+N51V+D91L+V96W) (Fab, V domains shown)
VH: B2 VH with S35D, S55R, K99L
VL: B2 VL with Y48F, N51V, D91L, V96W
B8: 2A8-127 (HC S35D+K99L/LC Y48F+N51V+G56D+V96W) (Fab, V domains shown)
VH: B2 VH with S35D, K99L
VL: B2 VL with Y48F, N51V, G56D, V96W
B9: 2A8-216 (HC S31V+I51D+S55R+K99V/LC Y48F+D91L+V96W) (Fab, V domains shown)
VH: B2 VH with S31V, I51D, S55R, K99V
VL: B2 VL with Y48F, D91L, V96W

These binders were tested against T1, human tissue factor pathway inhibitor … (assay: SPR, TFPI immobilized).

kd fold improvement against 4B7 [fold]	Binder
~50	B1

The binders below were run against T2, mouse tissue factor pathway inhibitor … (assay: equilibrium ELISA).

variant/wild-type [ratio]	Binder
230	B1

These binders were tested against T3, recombinant TFPI of the FXa restoring assay (human, mouse or rat; not specified for Tables 9 and 10) (assay: cell-based or functional assay).

IC50, FXa restoring assay [µg/mL]	Improvement vs parental, FXa restoring assay [fold]	Binder
0.058	25	B1
0.7	1	B2
0.181	3.9	B3

Each binder was assayed against T2, mouse tissue factor pathway inhibitor … (assay: SPR, TFPI immobilized).

Improvement [fold]	Kd [nM]	koff [s⁻¹]	kon [M⁻¹ s⁻¹]	Binder
137	0.427	0.00367	8.58e+06	B1
1	3.51	0.00517	1.47e+06	B2
7.2	0.488	0.000759	1.56e+06	B3

Target: T1, human tissue factor pathway inhibitor …
Test: SPR, TFPI immobilized
Remark: another data set of the same source

KD fold improvement [fold]	Kd [nM]	koff [s⁻¹]	kon [M⁻¹ s⁻¹]	Binder
1	1.85	0.0038	2.05e+06	B2
50.7	0.0365	5.29e-05	1.45e+06	B4
31.7	0.0584	3.61e-05	617000	B5
53.7	0.0344	9.88e-05	2.87e+06	B6
50.9	0.0364	0.000105	2.88e+06	B7
22	0.0841	0.000141	1.68e+06	B8
39.6	0.0467	0.000154	3.29e+06	B9

What follows are binders tested against T1, human tissue factor pathway inhibitor … (assay: competitive ELISA).

variant/HC_K99L [ratio]	Binder
19.6	B4
18.3	B5
19.7	B6
17.8	B7
18.8	B8
16.4	B9

Each binder was assayed against T2, mouse tissue factor pathway inhibitor … (assay: competitive ELISA).

variant/HC_K99L [ratio]	Binder
21.4	B4
13.3	B5
17.4	B6
13.4	B7
18.7	B8
11.9	B9

Target: T1, human tissue factor pathway inhibitor …
Test: competitive ELISA
Remark: another data set of the same source

variant/wild-type [ratio]	Binder
32.3	B1

Target: T2, mouse tissue factor pathway inhibitor …
Test: SPR, TFPI immobilized
Remark: another data set of the same source

KD fold improvement [fold]	Kd [nM]	koff [s⁻¹]	kon [M⁻¹ s⁻¹]	Binder
1	3.29	0.0031	940000	B2
41.6	0.0791	7.78e-05	984000	B4
27.3	0.121	0.000139	1.15e+06	B5
55.4				B6
48.5				B7
18.5				B8
63.9	0.0515	0.000216	4.19e+06	B9

Target: T1, human tissue factor pathway inhibitor …
Test: competitive ELISA
Remark: another data set of the same source

variant/wild-type [ratio]	Binder
13.5	B3

Target: T2, mouse tissue factor pathway inhibitor …
Test: competitive ELISA
Remark: another data set of the same source

variant/wild-type [ratio]	Binder
10.8	B3

Target: T3, recombinant TFPI of the FXa restoring …
Test: cell-based or functional assay
Remark: another data set of the same source

EC50, FXa restoring assay [nM]	Improvement vs parental 2A8, FXa restoring assay [fold]	Binder
7.91	1	B2
0.81	9.7	B6
0.5	15.8	B7
1	7.9	B3
0.44	18.2	B8
1.08	7.3	B9

Target: T1, human tissue factor pathway inhibitor …
Test: SPR, TFPI immobilized
Remark: another data set of the same source

Improvement [fold]	Kd [nM]	koff [s⁻¹]	kon [M⁻¹ s⁻¹]	Binder
191	0.0582	0.000165	2.83e+06	B1
1	2.24	0.007	3.13e+06	B2
7.22	0.309	0.000803	2.6e+06	B3
